Data set [1] addresses E. coli FtsZ (wild type) (E. coli) (UniProt P0A9A6).
Data set [2] addresses FtsZ(Δ375-383) (E. coli) (UniProt P0A9A6).
Data set [3] concerns the target FtsZ(Δ380-383) (E. coli) (UniProt P0A9A6).
Data set [4] deals with FtsZ(R379E) (E. coli) (UniProt P0A9A6).
Data set [5] has as its target FtsZ(K380A) (E. coli) (UniProt P0A9A6).
Data set [6] addresses FtsZ(P375G) (E. coli) (UniProt P0A9A6).
In data set [7] the target is FtsZ(F377A) (E. coli) (UniProt P0A9A6).
The target in data set [8] is E. coli FtsZ (wild type) (E. coli) (UniProt P0A9A6). This is another data set of the same source.
Data set [9] has as its target T1, ClpX(E185Q) (E. coli, UniProt P0A6H1 1-424, E185Q).
T1 construct: ClpX, Escherichia coli, ATP hydrolysis defective mutant E185Q; Concentrations are reported for ClpX hexamers; also called ATP hydrolysis defective mutant of ClpX
The data set can be described thus: co-sedimentation; 250 pmol FtsZ wild type or mutant polymerised with 2 mM GTP in assembly buffer (50 mM MES pH 6.5, 50 mM KCl, 10 mM MgCl2) with acetate kinase and acetyl phosphate; 1.5, 5.0 or 12.5 pmol ClpX(E185Q) and 4 mM ATP added, 25 µl, 10 min; 129,000×g 30 min; SDS-PAGE, Coomassie, densitometry; background without GTP subtracted. As to conditions: both partners purified.

Data set [10] deals with the molecule itself. The data set can be described thus: 90° light scattering; 8 µM FtsZ wild type or mutant in assembly buffer, polymerisation after addition of 1 mM GTP; self-association into polymers.
Data set [11] concerns the molecule itself. The data set can be described thus: negative-stain electron microscopy; FtsZ mutant proteins (5 µM) incubated with GTP, negative staining with uranyl acetate; filaments.

“E. coli ClpX (wild type) (from UniProt P0A6H1 1-424) (enzyme)” came in with a rate of degradation of fluorescent FtsZ (10 µM) by ClpXP (1 µM) in the absence of GTP, ultrafiltration assay in [1] of 0.11 min⁻¹. Moreover, the rate of degradation of fluorescent FtsZ (10 µM) by ClpXP (1 µM) in the presence of GTP, ultrafiltration assay in data set [1] came out at 0.2 min⁻¹. The reduction of the rate of degradation by ClpXP against wild type FtsZ, in the absence of GTP in data set [2] and in data set [3] was 65% throughout. For the same molecule, the reduction of the rate of degradation by ClpXP against wild type FtsZ, in the presence of GTP in data set [2] and in data set [3] was 75% throughout. For the same molecule, the reduction of the rate of degradation by ClpXP against wild type FtsZ, in both the presence and absence of GTP in data set [4] was 75%; in [5], 55%. Also, the reduction of the rate of degradation by ClpXP against wild type FtsZ, in the presence of GTP (no similar reduction without GTP) in data set [6] and in data set [7] was 50% each time.

B1: MinC (natural protein)
chain: MSNTPIELKGSSFTLSVVHLHEAEPKVIHQALEDKIAQAPAFLKHAPVVLNVSALEDPVNWSAMHKAVSATGLRVIGVSGCKDAQLKAEIEKMGLPILTEGKEKAPRPAPTPQAPAQNTTPVTKTRLIDTPVRSGQRIYAPQCDLIVTSHVSAGAELIADGNIHVYGMMRGRALAGASGDRETQIFCTNLMAELVSIAGEYWLSDQIPAEFYGKAARLQLVENALTVQPLN
As to B1, the inhibition of degradation of fluorescent FtsZ (5 µM, with GTP) by ClpXP (0.5 µM) at 2, 5, 10 and 20 µM MinC; the pair that is blocked: FtsZ with ClpX (ClpXP) in data set [8] came to 80%.

B2: E. coli FtsZ (wild type) (natural protein, UniProt P0A9A6 1-383, looked up)
chain: MFEPMELTNDAVIKVIGVGGGGGNAVEHMVRERIEGVEFFAVNTDAQALRKTAVGQTIQIGSGITKGLGAGANPEVGRNAADEDRDALRAALEGADMVFIAAGMGGGTGTGAAPVVAEVAKDLGILTVAVVTKPFNFEGKKRMAFAEQGITELSKHVDSLITIPNDKLLKVLGRGISLLDAFGAANDVLKGAVQGIAELITRPGLMNVDFADVRTVMSEMGYAMMGSGVASGEDRAEEAAEMAISSPLLEDIDLSGARGVLVNITAGFDLRLDEFETVGNTIRAFASDNATVVIGTSLDPDMNDELRVTVVATGIGMDKRPEITLVTNKQVQQPVMDRYQQHGMAPLTQEQKPVAKVVNDNAPQTAKEPDYLDIPAFLRKQAD
notes: FtsZ, Escherichia coli, wild type; Unlabelled in the co-sedimentation assay; labelled with Alexa fluor succinimidyl ester (0.5-5.0 mol/mol) in the degradation reactions; Assembles into polymers with GTP; also called wild type FtsZ
For the molecule B2, the binding result in data set [9] and in [10] was “binds” each time.

B3: FtsZ(352AAA) (natural protein, E. coli, UniProt P0A9A6 1-383, looked up)
chain: MFEPMELTNDAVIKVIGVGGGGGNAVEHMVRERIEGVEFFAVNTDAQALRKTAVGQTIQIGSGITKGLGAGANPEVGRNAADEDRDALRAALEGADMVFIAAGMGGGTGTGAAPVVAEVAKDLGILTVAVVTKPFNFEGKKRMAFAEQGITELSKHVDSLITIPNDKLLKVLGRGISLLDAFGAANDVLKGAVQGIAELITRPGLMNVDFADVRTVMSEMGYAMMGSGVASGEDRAEEAAEMAISSPLLEDIDLSGARGVLVNITAGFDLRLDEFETVGNTIRAFASDNATVVIGTSLDPDMNDELRVTVVATGIGMDKRPEITLVTNKQVQQPVMDRYQQHGMAPLTQEQAAAAKVVNDNAPQTAKEPDYLDIPAFLRKQAD
notes: source: E. coli BL21 (λDE3), purified like wild type FtsZ
As for B3, the binding result in data set [11] and in data set [9] was “binds” each time.

B4: FtsZ(R379E) (natural protein, E. coli, UniProt P0A9A6 1-383, looked up)
chain: MFEPMELTNDAVIKVIGVGGGGGNAVEHMVRERIEGVEFFAVNTDAQALRKTAVGQTIQIGSGITKGLGAGANPEVGRNAADEDRDALRAALEGADMVFIAAGMGGGTGTGAAPVVAEVAKDLGILTVAVVTKPFNFEGKKRMAFAEQGITELSKHVDSLITIPNDKLLKVLGRGISLLDAFGAANDVLKGAVQGIAELITRPGLMNVDFADVRTVMSEMGYAMMGSGVASGEDRAEEAAEMAISSPLLEDIDLSGARGVLVNITAGFDLRLDEFETVGNTIRAFASDNATVVIGTSLDPDMNDELRVTVVATGIGMDKRPEITLVTNKQVQQPVMDRYQQHGMAPLTQEQKPVAKVVNDNAPQTAKEPDYLDIPAFLEKQAD
notes: FtsZ, Escherichia coli, substitution R379E; source: E. coli BL21 (λDE3), purified like wild type FtsZ
Consider B4, for which the binding result in data set [11] was “binds”.

B5: FtsZ(K380A) (natural protein, E. coli, UniProt P0A9A6 1-383, looked up)
chain: MFEPMELTNDAVIKVIGVGGGGGNAVEHMVRERIEGVEFFAVNTDAQALRKTAVGQTIQIGSGITKGLGAGANPEVGRNAADEDRDALRAALEGADMVFIAAGMGGGTGTGAAPVVAEVAKDLGILTVAVVTKPFNFEGKKRMAFAEQGITELSKHVDSLITIPNDKLLKVLGRGISLLDAFGAANDVLKGAVQGIAELITRPGLMNVDFADVRTVMSEMGYAMMGSGVASGEDRAEEAAEMAISSPLLEDIDLSGARGVLVNITAGFDLRLDEFETVGNTIRAFASDNATVVIGTSLDPDMNDELRVTVVATGIGMDKRPEITLVTNKQVQQPVMDRYQQHGMAPLTQEQKPVAKVVNDNAPQTAKEPDYLDIPAFLRAQAD
notes: FtsZ, Escherichia coli, substitution K380A; source: E. coli BL21 (λDE3), purified like wild type FtsZ
With B5, the binding result in data set [10] is “binds”.

B6: FtsZ(356AAA) (natural protein, E. coli, UniProt P0A9A6 1-383, looked up)
chain: MFEPMELTNDAVIKVIGVGGGGGNAVEHMVRERIEGVEFFAVNTDAQALRKTAVGQTIQIGSGITKGLGAGANPEVGRNAADEDRDALRAALEGADMVFIAAGMGGGTGTGAAPVVAEVAKDLGILTVAVVTKPFNFEGKKRMAFAEQGITELSKHVDSLITIPNDKLLKVLGRGISLLDAFGAANDVLKGAVQGIAELITRPGLMNVDFADVRTVMSEMGYAMMGSGVASGEDRAEEAAEMAISSPLLEDIDLSGARGVLVNITAGFDLRLDEFETVGNTIRAFASDNATVVIGTSLDPDMNDELRVTVVATGIGMDKRPEITLVTNKQVQQPVMDRYQQHGMAPLTQEQKPVAAAANDNAPQTAKEPDYLDIPAFLRKQAD
notes: as for B3
In the case of B6, the binding result in data set [9] and in [10] was “binds” throughout.

B7: FtsZ(Δ380-383) (domain or fragment, E. coli, UniProt P0A9A6 1-379, looked up)
chain: MFEPMELTNDAVIKVIGVGGGGGNAVEHMVRERIEGVEFFAVNTDAQALRKTAVGQTIQIGSGITKGLGAGANPEVGRNAADEDRDALRAALEGADMVFIAAGMGGGTGTGAAPVVAEVAKDLGILTVAVVTKPFNFEGKKRMAFAEQGITELSKHVDSLITIPNDKLLKVLGRGISLLDAFGAANDVLKGAVQGIAELITRPGLMNVDFADVRTVMSEMGYAMMGSGVASGEDRAEEAAEMAISSPLLEDIDLSGARGVLVNITAGFDLRLDEFETVGNTIRAFASDNATVVIGTSLDPDMNDELRVTVVATGIGMDKRPEITLVTNKQVQQPVMDRYQQHGMAPLTQEQKPVAKVVNDNAPQTAKEPDYLDIPAFLR
notes: also called deletion mutant that lacks the C-terminal four amino acid variable region; source: E. coli BL21 (λDE3), purified like wild type FtsZ
As to B7, the binding result in data set [10] is recorded as “binds”.

B8: FtsZ(352AAA, Δ375-383) (domain or fragment, E. coli, UniProt P0A9A6 1-374, looked up)
chain: MFEPMELTNDAVIKVIGVGGGGGNAVEHMVRERIEGVEFFAVNTDAQALRKTAVGQTIQIGSGITKGLGAGANPEVGRNAADEDRDALRAALEGADMVFIAAGMGGGTGTGAAPVVAEVAKDLGILTVAVVTKPFNFEGKKRMAFAEQGITELSKHVDSLITIPNDKLLKVLGRGISLLDAFGAANDVLKGAVQGIAELITRPGLMNVDFADVRTVMSEMGYAMMGSGVASGEDRAEEAAEMAISSPLLEDIDLSGARGVLVNITAGFDLRLDEFETVGNTIRAFASDNATVVIGTSLDPDMNDELRVTVVATGIGMDKRPEITLVTNKQVQQPVMDRYQQHGMAPLTQEQAAAAKVVNDNAPQTAKEPDYLDI
notes: also called double mutant; source: E. coli BL21 (λDE3), purified like wild type FtsZ
In the case of B8, the binding result in data set [9] and in data set [10] was “binds” throughout.

B9: FtsZ(Δ375-383) (domain or fragment, E. coli, UniProt P0A9A6 1-374, looked up)
chain: MFEPMELTNDAVIKVIGVGGGGGNAVEHMVRERIEGVEFFAVNTDAQALRKTAVGQTIQIGSGITKGLGAGANPEVGRNAADEDRDALRAALEGADMVFIAAGMGGGTGTGAAPVVAEVAKDLGILTVAVVTKPFNFEGKKRMAFAEQGITELSKHVDSLITIPNDKLLKVLGRGISLLDAFGAANDVLKGAVQGIAELITRPGLMNVDFADVRTVMSEMGYAMMGSGVASGEDRAEEAAEMAISSPLLEDIDLSGARGVLVNITAGFDLRLDEFETVGNTIRAFASDNATVVIGTSLDPDMNDELRVTVVATGIGMDKRPEITLVTNKQVQQPVMDRYQQHGMAPLTQEQKPVAKVVNDNAPQTAKEPDYLDI
notes: Alexa-labelled in the degradation reactions, unlabelled in co-sedimentation; also called deletion mutant lacking the C-terminal nine amino acids; source: E. coli BL21 (λDE3), purified like wild type FtsZ
Regarding B9, the binding result in data set [9] is recorded as “binds”.

For the origin of these results see article PMC3983244, “Location of Dual Sites in E. coli FtsZ Important for Degradation by ClpXP; One at the C-Terminus and One in the Disordered Linker” (PLoS ONE, 2014).
